Here are results for one substance from patent publication US9777041B2, “Protein nanofibers from self-assembling pentamers” (New York University, priority 2013, dated 2017).

Several values for one entry are separate records, joined by “and”; a condition that tells them apart may be missing. Identical values can stand only once.

The nature of series [1]: Confocal microscopy of protein fibers in the presence of curcumin. Type of series: physicochemical. The protocol:
FIGS. 7a-7c show confocal microscopy of CC, Q54, and COMPcc^S wt, in the presence of curcumin. The mixture of protein to curcumin were all at a ratio of 1:5. […] All different proteins are in 50 mM phosphate buffer, pH 4. Protein and curcumin samples were combined and incubated for 12 hours prior to imaging. […] The width of COMPcc^S wt shown in FIG. 7c was determined to be 12.72 μm. […] Overall, Q54 fibers appeared to be more uniform in width, as well as more robust and consistent in fiber formation.
Confocal microscopy: Samples were imaged using a Leica TCS SP2 AOBS confocal microscope system equipped with argon ion and HeNe lasers. A 63×/1.4 NA oil-immersion objective was used for all of the images. Lab-Tek II chambered #1.5 German coverglass system was used as the imaging slide. Curcumin was excited using the 458 nm line of the argon laser, and images were taken with the detection window set between 465 and 560 nm. The pinhole aperture was set at an Airy value of 1.0, which was equivalent to sampling an ˜500 nm vertical z slice of the fiber, as estimated by the axial resolution, rz,confocal≈1.4λcm n/NA^2 (NA, numerical aperture; n, refractive index; λcm, emission wavelength (525 nm)). Interference contrast images were obtained using the Leica tube optics HC 1×/B apparatus with a focusing Bertrand lens. The 3D reconstructions were constructed using ImageJ 64 1.43 in concert with Amira 5.43, employing the Volren 3D rendering routine.

The nature of series [2]: Transmission electron microscopy of protein fibers. In kind it is physicochemical. The note with it: pH 4, 50 mM PB. The procedure:
Transmission electron microscopy: A JEOL JEM-1400 transmission electron microscope (TEM) was used to study the supramolecular protein structure. […] After 1 minute, the grids were blotted using filter paper and rinsed with 3-4 drops Milli Q water to remove excess salts from the buffer. After blotting with filter paper, the sample was negatively stained by adding 3 μL of 1% filtered uranyl acetate, blotted using filter paper, and dried at room temperature for 10-15 minutes. ImageJ software was used to measure the fibers dimensions.

For the substance “Q: Q54 protein, SEQ ID NO:2, variant of COMPcc; coiled-coil that self-assembles into homopentamers and nanofibers (MRGSHHHHHHGSIEGRVKEITFLKNTAPQMLRELQETNAALQDVRELLRQQSKL)”, the microfiber diameter in series [1] (in the presence of curcumin (10 μM Q, 50 μM curcumin), pH 4) was 16 μm and 16.0±5.6 μm. Besides, in series [1] (protein:curcumin 1:5, 20 mM protein, 100 mM curcumin, 50 mM phosphate buffer pH 4, 12 hours), the “average width of protein fibers” value worked out at 16.87±9 μm. In series [2], the “fiber formation seen by TEM” value is recorded as “regularly forms fibers with high levels of structure” and the protofibril diameters worked out at 3.5±0.5 nm. Also, in series [2] (listed as Q54), the fiber diameters is given as 50-100 nm and the protofibril diameters was 3-4 nm.
